Patent US20200199213A1 (Eli Lilly, published 2020)
Residue numbers refer to the chain shown, from its start. Numbers in names are those of the source.

T1: human ANGPTL3 (human, UniProt Q9Y5C1 17-460)
T1 construct: Biotinylated in the ELISA assays; also called hANGPTL3; free ANGPTL3
T1 sequence: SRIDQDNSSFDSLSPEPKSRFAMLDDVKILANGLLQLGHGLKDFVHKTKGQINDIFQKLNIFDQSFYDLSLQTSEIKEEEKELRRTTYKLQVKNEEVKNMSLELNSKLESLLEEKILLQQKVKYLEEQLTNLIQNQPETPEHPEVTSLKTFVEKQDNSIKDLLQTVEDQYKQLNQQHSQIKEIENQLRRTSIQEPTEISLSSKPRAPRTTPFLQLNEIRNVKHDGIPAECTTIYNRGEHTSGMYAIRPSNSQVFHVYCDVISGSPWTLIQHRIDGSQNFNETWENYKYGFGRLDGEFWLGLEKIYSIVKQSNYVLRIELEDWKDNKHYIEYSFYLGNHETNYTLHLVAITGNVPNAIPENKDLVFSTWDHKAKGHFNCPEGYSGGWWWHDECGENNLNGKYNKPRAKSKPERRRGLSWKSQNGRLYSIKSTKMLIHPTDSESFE

T2: human ANGPTL8 (human, UniProt Q6UXH0 22-198)
T2 construct: Biotinylated in the ELISA assays; also called hANGPTL8; free ANGPTL8
T2 sequence: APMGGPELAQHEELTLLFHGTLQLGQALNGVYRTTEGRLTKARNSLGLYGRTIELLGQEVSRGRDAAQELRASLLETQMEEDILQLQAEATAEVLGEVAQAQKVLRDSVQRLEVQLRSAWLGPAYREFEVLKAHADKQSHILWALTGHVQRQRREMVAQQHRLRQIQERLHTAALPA

T3: human ANGPTL3/8 complex (human, UniProt Q9Y5C1 17-460; Q6UXH0 22-198, limits assumed)
T3 construct: also called hANGPTL3/8 complex; ANGTPL3/8 complex
T3 sequence 1: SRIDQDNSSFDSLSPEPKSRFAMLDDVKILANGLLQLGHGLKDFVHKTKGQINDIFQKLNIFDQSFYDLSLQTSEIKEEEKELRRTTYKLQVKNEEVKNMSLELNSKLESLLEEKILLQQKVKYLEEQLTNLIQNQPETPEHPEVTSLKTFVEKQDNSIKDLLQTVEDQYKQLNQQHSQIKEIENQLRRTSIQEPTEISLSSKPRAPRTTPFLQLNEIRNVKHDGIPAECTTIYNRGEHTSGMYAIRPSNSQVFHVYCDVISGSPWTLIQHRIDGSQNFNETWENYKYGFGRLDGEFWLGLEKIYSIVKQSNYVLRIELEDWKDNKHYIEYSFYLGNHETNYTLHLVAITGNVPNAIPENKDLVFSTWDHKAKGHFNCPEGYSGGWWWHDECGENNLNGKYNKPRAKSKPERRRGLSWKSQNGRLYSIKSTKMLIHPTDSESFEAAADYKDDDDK
T3 sequence 2: T2 sequence

B1: anti-ANGPTL3/8 complex Ab having a LC of SEQ ID NO:5 and a HC of SEQ ID NO:6 (antibody, human IgG4 S228P, kappa, F234A L235A, V domains shown)
VH: QVTLKESGPTLVKPTQTLTLTCTFSGFSLSISGVGVGWIRQPPGKALEWLALIYRNDDKRYSPSLKSRLTITKDTSKNQVVLTLTNMDPVDTATYYCARTYSSGWYGNWFDPWGQGTLVTVSS
VL: DIVMTQTPLSLPVTPGEPASISCRSSQSLLDSDDGNTYLDWYLQKPGQSPQLLIYMLSYRASGVPDRFSGSGSGTDFTLKISRVEAEDVGIYYCMQRIEFPLTFGGGTKVEIKR
notes: In the ELISA assays tested as IgG from CHO supernatants; also called the Ab
B2: Ab with LC variant having a D31S mutation (SEQ ID NO:21) and a HC of SEQ ID NO:6 (antibody, human IgG4 S228P, kappa, F234A L235A, V domains shown)
VH: B1 VH
VL: B1 VL with D31S
notes: also called D31S Variant Ab; D31S Ab
B3: Ab with LC variant having a D33A mutation (SEQ ID NO:22) and a HC of SEQ ID NO:6 (antibody, human IgG4 S228P, kappa, F234A L235A, V domains shown)
VH: B1 VH
VL: B1 VL with D33A
notes: also called D33A Variant Ab; D33A Ab
B4: Ab with LC variant having a E99Q mutation (SEQ ID NO:25) and a HC of SEQ ID NO:6 (antibody, human IgG4 S228P, kappa, F234A L235A, V domains shown)
VH: B1 VH
VL: B1 VL with E99Q
notes: also called E99Q Variant Ab; E99Q Ab

What follows are binders tested against T1, human ANGPTL3 (assay: ELISA; Ab captured by anti-human Fc; biotinylated antigen at 0.412 nM).
Description: (§1) ELISA Assay: Ab binding selectivity to either the ANGPTL3/8 complex, free ANGPTL3 or free ANGPTL8 is verified using standard ELISA assays. […] Ab from CHO supernatants after expression in CHO cells is then captured to the assay plate and results is an Ab concentration of 2 μg/ml. Biotinylated antigen (ANGPTL3, ANGPTL8 or ANGPTL3/8 complex) is added at varying concentrations by serial dilution to allow for Ab/antigen binding. Ab/antigen complexes are detected after the addition of alkaline phosphatase-conjugated neutravidin, and alkaline phosphatase substrate, and subsequent measurement of the optical density at 560 nm.

Going from B1 to B2, the “OD at 560 nm” value rises from 0.043 OD 560 nm to 0.058 OD 560 nm.

Going from B3 to B4, the “OD at 560 nm” value rises from 0.056 OD 560 nm to 0.058 OD 560 nm.

What follows are binders tested against T2, human ANGPTL8 in the same assay as above.
Description: as §1

First: B1
Second: B2
The “OD at 560 nm” value of the first is lower: 0.046 OD 560 nm for the first, 0.062 OD 560 nm for the second.

Compared with B3, B4 is higher in “OD at 560 nm” value: 0.047 OD 560 nm for the first, 0.062 OD 560 nm for the second.

Each binder was assayed against T3, human ANGPTL3/8 complex in the same assay as above.
Description: as §1

First: B1
Second: B2
The “OD at 560 nm” value of the first is lower: 0.231 OD 560 nm for the first, 0.234 OD 560 nm for the second.

Compared with B3, B4 is higher in “OD at 560 nm” value: 0.196 OD 560 nm for the first, 0.234 OD 560 nm for the second.

The binders below were run against T1, human ANGPTL3 (assay: ELISA; Ab captured by anti-human Fc; biotinylated antigen at 1.23 nM).
Description: as §1

Compared with B1, B2 is higher in “OD at 560 nm” value: 0.043 OD 560 nm for the first, 0.059 OD 560 nm for the second.

Compared with B3, B4 is higher in “OD at 560 nm” value: 0.057 OD 560 nm for the first, 0.059 OD 560 nm for the second.

These binders were tested against T2, human ANGPTL8 in the same assay as above.
Description: as §1

First: B1
Second: B2
The “OD at 560 nm” value of the first is lower: 0.043 OD 560 nm for the first, 0.058 OD 560 nm for the second.

Compared with B3, B4 is higher in “OD at 560 nm” value: 0.049 OD 560 nm for the first, 0.058 OD 560 nm for the second.

The binders below were run against T3, human ANGPTL3/8 complex in the same assay as above.
Description: as §1

First: B1
Second: B2
The “OD at 560 nm” value of the first is lower: 0.51 OD 560 nm for the first, 0.575 OD 560 nm for the second.

Compared with B3, B4 is higher in “OD at 560 nm” value: 0.491 OD 560 nm for the first, 0.575 OD 560 nm for the second.

The binders below were run against T3, human ANGPTL3/8 complex (assay: cell-based or functional assay).

First: B2
Second: B3
The “% Max Derepression LPL” value of the first is higher: 106% for the first, 103% for the second.

For B4, the “% Max Derepression LPL” value was 106%.

B2 and B3 are within 1.5-fold of each other in “Ab EC50 (nM), derepression of LPL” value: 0.86 nM for the first, 1.14 nM for the second.

For B4, the “Ab EC50 (nM), derepression of LPL” value was 0.49 nM.

Each binder was assayed against T1, human ANGPTL3 (assay: ELISA; Ab captured by anti-human Fc; biotinylated antigen at 100 nM).
Description: as §1

First: B1
Second: B2
The “OD at 560 nm” value of the first is lower: 0.081 OD 560 nm for the first, 0.084 OD 560 nm for the second.

Compared with B3, B4 is higher in “OD at 560 nm” value: 0.082 OD 560 nm for the first, 0.084 OD 560 nm for the second.

These binders were tested against T2, human ANGPTL8 in the same assay as above.
Description: as §1

Compared with B1, B2 is higher in “OD at 560 nm” value: 0.072 OD 560 nm for the first, 0.098 OD 560 nm for the second.

Compared with B3, B4 is higher in “OD at 560 nm” value: 0.078 OD 560 nm for the first, 0.098 OD 560 nm for the second.

The binders below were run against T3, human ANGPTL3/8 complex in the same assay as above.
Description: as §1

First: B1
Second: B2
The “OD at 560 nm” value of the first is higher: 2.71 OD 560 nm for the first, 2.47 OD 560 nm for the second.

Going from B3 to B4, the “OD at 560 nm” value rises from 2.39 OD 560 nm to 2.47 OD 560 nm.

The binders below were run against T1, human ANGPTL3 (assay: ELISA; Ab captured by anti-human Fc; biotinylated antigen at 0.046 nM).
Description: as §1

B1 and B2 are the same in “OD at 560 nm” value: 0.06 OD 560 nm for the first, 0.06 OD 560 nm for the second.

Compared with B3, B4 is lower in “OD at 560 nm” value: 0.062 OD 560 nm for the first, 0.06 OD 560 nm for the second.

What follows are binders tested against T2, human ANGPTL8 in the same assay as above.
Description: as §1

Going from B1 to B2, the “OD at 560 nm” value rises from 0.051 OD 560 nm to 0.096 OD 560 nm.

First: B3
Second: B4
The “OD at 560 nm” value of the first is lower: 0.074 OD 560 nm for the first, 0.096 OD 560 nm for the second.

These binders were tested against T3, human ANGPTL3/8 complex in the same assay as above.
Description: as §1

Going from B1 to B2, the “OD at 560 nm” value rises from 0.078 OD 560 nm to 0.149 OD 560 nm.

First: B3
Second: B4
The “OD at 560 nm” value of the first is lower: 0.111 OD 560 nm for the first, 0.149 OD 560 nm for the second.

What follows are binders tested against T1, human ANGPTL3 (assay: ELISA; Ab captured by anti-human Fc; biotinylated antigen at 11.1 nM).
Description: as §1

Going from B1 to B2, the “OD at 560 nm” value rises from 0.046 OD 560 nm to 0.062 OD 560 nm.

First: B3
Second: B4
The “OD at 560 nm” value of the first is lower: 0.06 OD 560 nm for the first, 0.062 OD 560 nm for the second.

What follows are binders tested against T2, human ANGPTL8 in the same assay as above.
Description: as §1

Going from B1 to B2, the “OD at 560 nm” value rises from 0.045 OD 560 nm to 0.062 OD 560 nm.

First: B3
Second: B4
The “OD at 560 nm” value of the first is lower: 0.048 OD 560 nm for the first, 0.062 OD 560 nm for the second.

What follows are binders tested against T3, human ANGPTL3/8 complex in the same assay as above.
Description: as §1

Going from B1 to B2, the “OD at 560 nm” value rises from 1.71 OD 560 nm to 1.74 OD 560 nm.

Compared with B3, B4 is higher in “OD at 560 nm” value: 1.64 OD 560 nm for the first, 1.74 OD 560 nm for the second.
